Legend:
[1] = target: T1, E1E2 complex of HCV isolate H77 (genotype 1a), wild type (HCV isolate H77, UniProt P27958 192-383; P27958 384-746); assay: competition ELISA on H77 E1E2; competitor m43 (Fab P1a)
[2] = target: T1, E1E2 complex of HCV isolate H77 …; assay: competition ELISA on H77 E1E2; competitor m40 (Fab N4)
[3] = target: E1E2 (Env) of HCV isolate J6 (genotype 2a) on HCVpp (hepatitis C virus, isolate J6, UniProt P26660 192-383; P26660 384-750); assay: cell-based or functional assay
[4] = target: VSV (control pseudotype virus envelope); assay: cell-based or functional assay
[5] = target: T1, E1E2 complex of HCV isolate H77 …; assay: cell-based or functional assay
[6] = target: E1E2 (Env) of HCV isolate UKN2B1.1 (genotype 2b) on HCVpp (hepatitis C virus, isolate UKN2B1.1); assay: cell-based or functional assay
[7] = target: E1E2 (Env) of HCV isolate UKN1B12.16 (genotype 1b) on HCVpp (hepatitis C virus, isolate UKN1B12.16); assay: cell-based or functional assay
[8] = target: E1E2 (Env) of HCV isolate UKN4.21.16 (genotype 4) on HCVpp (hepatitis C virus, isolate UKN4.21.16); assay: cell-based or functional assay
[9] = target: E1E2 (Env) of HCV isolate UKN5.15.7 (genotype 5) on HCVpp (hepatitis C virus, isolate UKN5.15.7); assay: cell-based or functional assay
[10] = target: E1E2 (Env) of HCV isolate OH8 (genotype 1b) on HCVpp (hepatitis C virus, isolate OH8); assay: cell-based or functional assay
[11] = target: E1E2 (Env) of HCV isolate UKN2A1.2 (genotype 2a) on HCVpp (hepatitis C virus, isolate UKN2A1.2); assay: cell-based or functional assay
[12] = target: T1, E1E2 complex of HCV isolate H77 …; assay: competition ELISA on H77 E1E2; competitor m42 (Fab P1)
[13] = target: T2, vaccinia-expressed E1E2 complex, isolate HCV-1 (genotype 1a) (hepatitis C virus, isolate HCV-1, UniProt P26664 192-383; P26664 384-746); assay: competition ELISA on HCV-1 E1E2; competitor m36 (A4)
[14] = target: T2, vaccinia-expressed E1E2 complex, …; assay: competition ELISA on HCV-1 E1E2; competitor m34 (6/53)
[15] = target: T2, vaccinia-expressed E1E2 complex, …; assay: competition ELISA on HCV-1 E1E2; competitor m35 (ALP98)
[16] = target: T1, E1E2 complex of HCV isolate H77 …; assay: competition ELISA on H77 E1E2; competitor m45 (Fab P3)
[17] = target: T1, E1E2 complex of HCV isolate H77 …; assay: competition ELISA on H77 E1E2; competitor m41 (Fab O1)
[18] = target: T2, vaccinia-expressed E1E2 complex, …; assay: competition ELISA on HCV-1 E1E2; competitor m21 (CBH-5)
[19] = target: T1, E1E2 complex of HCV isolate H77 …; assay: competition ELISA on H77 E1E2; competitor m37 (Fab N1)
[20] = target: T2, vaccinia-expressed E1E2 complex, …; assay: competition ELISA on HCV-1 E1E2; competitor m25 (9/27)
[21] = target: T1, E1E2 complex of HCV isolate H77 …; assay: competition ELISA on H77 E1E2; competitor m44 (Fab P2)
[22] = target: T2, vaccinia-expressed E1E2 complex, …; assay: competition ELISA on HCV-1 E1E2; competitor m31 (11/20)
[23] = target: T2, vaccinia-expressed E1E2 complex, …; assay: competition ELISA on HCV-1 E1E2; competitor m23 (H53)
[24] = target: E1E2 (Env) of HCV isolate H (genotype 1a) on HCVpp (hepatitis C virus, isolate H); assay: cell-based or functional assay

B1: MAb AR1B (antibody, V domains shown)
VH: LESGGGLVQPGGSLRLSCEASGYYFSSFAMSWVRQTPGKGLEWVSSIAGGTLGRTSYRDSVKGRFTISRDNSKNTVFLHMNNLRPEDTAVYYCAKDPLLFAGGPNWFDHWGQGTLVTVSS
VL: not shown
notes: also called IgG1 of Fab D1
- % residual binding [1]: 100%
- % residual binding [2]: 95%
- Neutralizing activity (IC50) on HCVpp [3]: > 50 µg/mL
- Neutralizing activity (IC50) on control pseudotype virus [4]: > 50 µg/mL
- Neutralizing activity (IC50) on HCVpp [5]: > 50 µg/mL
- Neutralizing activity (IC50) on HCVpp [6]: > 50 µg/mL
- Neutralizing activity (IC50) on HCVpp [7]: > 50 µg/mL
- Neutralizing activity (IC50) on HCVpp [8]: > 50 µg/mL
- Neutralizing activity (IC50) on HCVpp [9]: > 50 µg/mL
- Neutralizing activity (IC50) on HCVpp [10]: > 50 µg/mL
- Neutralizing activity (IC50) on HCVpp [11]: > 50 µg/mL
- % residual binding [12]: 97%
- % residual binding [13]: 103%
- % residual binding [14]: 92%
- % residual binding [15]: 92%
- % residual binding [16]: 93%
- % residual binding [17]: 95%
- % residual binding [18]: 89%
- % residual binding [19]: 95%
- % residual binding [20]: 70%
- % residual binding [21]: 99%
- % residual binding [22]: 79%
- % residual binding [23]: 12%

B2: MAb AR3C (antibody, V domains shown)
VH: LEQSGAEVKKPGSSVKVSCETSGGTLDNYALNWVRQAPGQGLEWIGGVVPLFGTTRNAQKFQGRVTISDDKSTGTGHMELRSLRSEDTAVYYCVRSVTPRYCGGGFCYGEFDYWGQGTLVTVSS
VL: ELTQSPATLSVSPGERATLSCRASQSVSSNLAWYQQKPGQAPRLLIYGASTRATGIPARFSGSGSGTEFTLTVSRLEPEDSAVYFCQQYYRSPLTFGGGTKVEIKR
notes: also called IgG1 of Fab H3
- % residual binding [1]: 145%
- % residual binding [2]: 112%
- Neutralizing activity (IC50) on HCVpp [3]: 10 µg/mL
- Neutralizing activity (IC50) on control pseudotype virus [4]: > 50 µg/mL
- Neutralizing activity (IC50) on HCVpp [24]: 1 µg/mL
- Neutralizing activity (IC50) on HCVpp [5]: 1 µg/mL
- Neutralizing activity (IC50) on HCVpp [6]: 10 µg/mL
- Neutralizing activity (IC50) on HCVpp [7]: 1 µg/mL
- Neutralizing activity (IC50) on HCVpp [8]: 1 µg/mL
- Neutralizing activity (IC50) on HCVpp [9]: 1 µg/mL
- Neutralizing activity (IC50) on HCVpp [10]: 5 µg/mL
- Neutralizing activity (IC50) on HCVpp [11]: 10 µg/mL
- % residual binding [12]: 131%
- % residual binding [13]: 93%
- % residual binding [14]: 105%
- % residual binding [15]: 99%
- % residual binding [16]: 124%
- % residual binding [17]: 77%
- % residual binding [18]: 19%
- % residual binding [19]: 146%
- % residual binding [20]: 62%
- % residual binding [21]: 140%
- % residual binding [22]: 62%
- % residual binding [23]: 77%

B3: MAb AR2A (antibody, V domains shown)
VH: LEQSGAEMKKPGASLKVSCKTSGYTFDDYGVTWVRQAPGQGLEWMGWISAYSGNTFYARKFQGRVTMTTDPSTRTAYMELRSLRSDDTAVYFCARDRGLAINGVVFPYFGLDVWGQGTTVTVSS
VL: ELTQSPVSLPVTPGEPASISCRSSQSLLHSNGNHYLDWYLQKPGQSPQLLMYLGSNRASGVPDRFSGSGSGTDFTLKISRVEAEDVGVYYCMQGLQTPWTFGQGTKVEIKR
notes: also called IgG1 of Fab G
- % residual binding [1]: 82%
- % residual binding [2]: 74%
- Neutralizing activity (IC50) on HCVpp [3]: > 50 µg/mL
- Neutralizing activity (IC50) on control pseudotype virus [4]: > 50 µg/mL
- Neutralizing activity (IC50) on HCVpp [24]: 5 µg/mL
- Neutralizing activity (IC50) on HCVpp [5]: 1 µg/mL
- Neutralizing activity (IC50) on HCVpp [6]: 10 µg/mL
- Neutralizing activity (IC50) on HCVpp [7]: > 50 µg/mL
- Neutralizing activity (IC50) on HCVpp [8]: 1 µg/mL
- Neutralizing activity (IC50) on HCVpp [9]: 10 µg/mL
- Neutralizing activity (IC50) on HCVpp [10]: > 50 µg/mL
- Neutralizing activity (IC50) on HCVpp [11]: 5 µg/mL
- % residual binding [12]: 82%
- % residual binding [13]: 92%
- % residual binding [14]: 92%
- % residual binding [15]: 94%
- % residual binding [16]: 72%
- % residual binding [17]: 88%
- % residual binding [18]: 91%
- % residual binding [19]: 85%
- % residual binding [20]: 67%
- % residual binding [21]: 82%
- % residual binding [22]: 84%
- % residual binding [23]: 107%

B4: MAb AR3D (antibody, V domains shown)
VH: LEQSGAEVKKPGSSVKVSCKASGDTFRSYVITWARQAPGQGLEWMGAIIPFFGTTNLAQKFQGRVTITADESTKTVYMDLSSLRSDDTAVYYCAKAGDLSVGGVLAGGVPHLRHFDPWGQGTLVTVSS
VL: ELTQSPGTLSLSPGERATLSCRAGQTVASNSLAWYQHKPGQAPRLLIYGASIRASGIPDRFSGSGSGTDFTLTISRLEPEDFAVYYCQQYGLSSTFGQGTRLEIKR
notes: also called IgG1 of Fab L4
- % residual binding [1]: 138%
- % residual binding [2]: 92%
- Neutralizing activity (IC50) on HCVpp [3]: 50 µg/mL
- Neutralizing activity (IC50) on control pseudotype virus [4]: > 50 µg/mL
- Neutralizing activity (IC50) on HCVpp [24]: 1 µg/mL
- Neutralizing activity (IC50) on HCVpp [5]: 1 µg/mL
- Neutralizing activity (IC50) on HCVpp [6]: 25 µg/mL
- Neutralizing activity (IC50) on HCVpp [7]: 1 µg/mL
- Neutralizing activity (IC50) on HCVpp [8]: 1 µg/mL
- Neutralizing activity (IC50) on HCVpp [9]: 10 µg/mL
- Neutralizing activity (IC50) on HCVpp [10]: 5 µg/mL
- Neutralizing activity (IC50) on HCVpp [11]: 25 µg/mL
- % residual binding [12]: 145%
- % residual binding [13]: 90%
- % residual binding [14]: 103%
- % residual binding [15]: 97%
- % residual binding [16]: 118%
- % residual binding [17]: 83%
- % residual binding [18]: 18%
- % residual binding [19]: 131%
- % residual binding [20]: 49%
- % residual binding [21]: 138%
- % residual binding [22]: 47%
- % residual binding [23]: 74%

B5: MAb AR1A (antibody, V domains shown)
VH: LEQSGAEVKKPGSSVKVSCRASGSPYSSYTITWVRQAPGQGLEWMGGIILMTGKANYAQKFQGRVTITADRATATAYMEMSSLTSDDTAIYYCARDPYVYAGDDVRSLSRWGQGTPVIVSS
VL: not shown
notes: also called IgG1 of Fab B2
- % residual binding [1]: 88%
- % residual binding [2]: 94%
- Neutralizing activity (IC50) on HCVpp [3]: > 50 µg/mL
- Neutralizing activity (IC50) on control pseudotype virus [4]: > 50 µg/mL
- Neutralizing activity (IC50) on HCVpp [5]: > 50 µg/mL
- Neutralizing activity (IC50) on HCVpp [6]: > 50 µg/mL
- Neutralizing activity (IC50) on HCVpp [7]: > 50 µg/mL
- Neutralizing activity (IC50) on HCVpp [8]: > 50 µg/mL
- Neutralizing activity (IC50) on HCVpp [9]: > 50 µg/mL
- Neutralizing activity (IC50) on HCVpp [10]: > 50 µg/mL
- Neutralizing activity (IC50) on HCVpp [11]: > 50 µg/mL
- % residual binding [12]: 86%
- % residual binding [13]: 97%
- % residual binding [14]: 89%
- % residual binding [15]: 92%
- % residual binding [16]: 85%
- % residual binding [17]: 76%
- % residual binding [18]: 54%
- % residual binding [19]: 83%
- % residual binding [20]: 74%
- % residual binding [21]: 91%
- % residual binding [22]: 84%
- % residual binding [23]: 20%

Reference: patent US20110311550A1 (Scripps Research, published 2011)
